Data as given in paper PMC8278493, “Structure of the TELO2-TTI1-TTI2 complex and its function in TOR recruitment to the R2TP chaperone” (Cell Reports, 2021).

B1: human TELO2 (as in the purified TTT complex) (natural protein, UniProt Q9Y4R8 1-837, looked up)
chain: MEPAPSEVRLAVREAIHALSSSEDGGHIFCTLESLKRYLGEMEPPALPREKEEFASAHFSPVLRCLASRLSPAWLELLPHGRLEELWASFFLEGPADQAFLVLMETIEGAAGPSFRLMKMARLLARFLREGRLAVLMEAQCRQQTQPGFILLRETLLGKVVALPDHLGNRLQQENLAEFFPQNYFRLLGEEVVRVLQAVVDSLQGGLDSSVSFVSQVLGKACVHGRQQEILGVLVPRLAALTQGSYLHQRVCWRLVEQVPDRAMEAVLTGLVEAALGPEVLSRLLGNLVVKNKKAQFVMTQKLLFLQSRLTTPMLQSLLGHLAMDSQRRPLLLQVLKELLETWGSSSAIRHTPLPQQRHVSKAVLICLAQLGEPELRDSRDELLASMMAGVKCRLDSSLPPVRRLGMIVAEVVSARIHPEGPPLKFQYEEDELSLELLALASPQPAGDGASEAGTSLVPATAEPPAETPAEIVDGGVPQAQLAGSDSDLDSDDEFVPYDMSGDRELKSSKAPAYVRDCVEALTTSEDIERWEAALRALEGLVYRSPTATREVSVELAKVLLHLEEKTCVVGFAGLRQRALVAVTVTDPAPVADYLTSQFYALNYSLRQRMDILDVLTLAAQELSRPGCLGRTPQPGSPSPNTPCLPEAAVSQPGSAVASDWRVVVEERIRSKTQRLSKGGPRQGPAGSPSRFNSVAGHFFFPLLQRFDRPLVTFDLLGEDQLVLGRLAHTLGALMCLAVNTTVAVAMGKALLEFVWALRFHIDAYVRQGLLSAVSSVLLSLPAARLLEDLMDELLEARSWLADVAEKDPDEDCRTLALRALLLLQRLKNRLLPPASP
notes: TELO2, human; Only the N-terminal domain (TELO2-N) is seen in the map; source: Sf9, purified within TTT; not shown: GST, N-terminal, cleaved
B2: human GST-TELO2 (natural protein, UniProt Q9Y4R8 1-837, looked up)
chain: B1 chain
notes: TELO2, human; The tagged subunit of m4, as the bait with which TTI1-TTI2 is found; also called GST-TEL2; not shown: GST, N-terminal, kept
B3: S. cerevisiae Tah1p-Pih1p complex with a tandem strep-tag on the N terminus of Tah1p (complex)
chain 1: MSQFEKQKEQGNSLFKQGLYREAVHCYDQLITAQPQNPVGYSNKAMALIKLGEYTQAIQMCQQGLRYTSTAEHVAIRSKLQYRLELAQGAVGSVQIPVVEVDELPEGYDRS
chain 2: MADFLLRPIKQRHRNEDKYVSVDAADGSVSKIEPIADFVIKTKLLSANGPEKLQDGRKVFINVCHSPLVPKPEVDFNARIVFPLIIQNEWEIPIITSCYRMDHDKKGQECYVWDCCINSDCSRWICDDIQLREILVEWCLESCEIRDSVVLCRDRIAFPKMKKKGAELPALEVLNDELHQDYKAKMHKIIEEEAGDPMSILRGRNDDGDDNNDPDDGTLPPLFPIENKISGAKIEEIDKNEIAHRNLKQAPAPAPAPHEQQEDVPEYEVKMKRFKGAAYKLRILIENKAPNSKPDRFSPSYNFAENILYINGKLSIPLPRDIVVNAADIKIFHIRKERTLYIYI
notes: Tah1p, Saccharomyces cerevisiae; Pih1p, Saccharomyces cerevisiae; also called yTP; TP; source: expressed and purified as previously described (Rivera-Calzada et al., 2017); not shown: tandem Strep, N-terminal, kept
B4: human TTI2 (as in the purified TTT complex) (natural protein, UniProt Q6NXR4 1-508, looked up)
chain: MELDSALEAPSQEDSNLSEELSHSAFGQAFSKILHCLARPEARRGNVKDAVLKDLGDLIEATEFDRLFEGTGARLRGMPETLGQVAKALEKYAAPSKEEEGGGDGHSEAAEKAAQVGLLFLKLLGKVETAKNSLVGPAWQTGLHHLAGPVYIFAITHSLEQPWTTPRSREVAREVLTSLLQVTECGSVAGFLHGENEDEKGRLSVILGLLKPDLYKESWKNNPAIKHVFSWTLQQVTRPWLSQHLERVLPASLVISDDYQTENKILGVHCLHHIVLNVPAADLLQYNRAQVLYHAISNHLYTPEHHLIQAVLLCLLDLFPILEKTLHWKGDGARPTTHCDEVLRLILTHMEPEHRLLLRRTYARNLPAFVNRLGILTVRHLKRLERVIIGYLEVYDGPEEEARLKILETLKLLMQHTWPRVSCRLVVLLKALLKLICDVARDPNLTPESVKSALLQEATDCLILLDRCSQGRVKGLLAKIPQSCEDRKVVNYIRKVQQVSEGAPYNGT
notes: TTI2, human, 508 residues; In PDB 7OLE TTI2 is modelled as poly-alanine helices only; source: Sf9, purified within TTT
B5: S. cerevisiae Rvb1p-Rvb2p complex (complex)
chain 1: MVAISEVKENPGVNSSNSGAVTRTAAHTHIKGLGLDESGVAKRVEGGFVGQIEAREACGVIVDLIKAKKMSGRAILLAGGPSTGKTALALAISQELGPKVPFCPLVGSELYSVEVKKTETLMENFRRAIGLRIKETKEVYEGEVTELTPEDAENPLGGYGKTISHVIVGLKSAKGTKTLRLDPTIYESIQREKVSIGDVIYIEANTGAVKRVGRSDAYATEFDLETEEYVPLPKGEVHKKKEIVQDVTLHDLDVANARPQGGQDVISMMGQLLKPKKTEITEKLRQEVNKVVAKYIDQGVAELIPGVLFIDEVNMLDIEIFTYLNKALESNIAPVVVLASNRGMTTVRGTEDVISPHGVPPDLIDRLLIVRTLPYDKDEIRTIIERRATVERLQVESSALDLLATMGTETSLRYALQLLAPCGILAQTSNRKEIVVNDVNEAKLLFLDAKRSTKILETSANYL
chain 2: MSIQTSDPNETSDLKSLSLIAAHSHITGLGLDENLQPRPTSEGMVGQLQARRAAGVILKMVQNGTIAGRAVLVAGPPSTGKTALAMGVSQSLGKDVPFTAIAGSEIFSLELSKTEALTQAFRKSIGIKIKEETELIEGEVVEIQIDRSITGGHKQGKLTIKTTDMETIYELGNKMIDGLTKEKVLAGDVISIDKASGKITKLGRSFARSRDYDAMGADTRFVQCPEGELQKRKTVVHTVSLHEIDVINSRTQGFLALFTGDTGEIRSEVRDQINTKVAEWKEEGKAEIVPGVLFIDEVHMLDIECFSFINRALEDEFAPIVMMATNRGVSKTRGTNYKSPHGLPLDLLDRSIIITTKSYNEQEIKTILSIRAQEEEVELSSDALDLLTKTGVETSLRYSSNLISVAQQIAMKRKNNTVEVEDVKRAYLLFLDSARSVKYVQENESQYIDDQGNVQISIAKSADPDAMDTTE
notes: Rvb1p, Saccharomyces cerevisiae; Rvb2p, Saccharomyces cerevisiae; also called yR2; R2; source: expressed and purified as previously described (Rivera-Calzada et al., 2017); copies: 3 + 3

How the values were obtained:
Settings in all cases: both partners purified
[1] = molecular target: T1, human TTI1, full length, untagged (human, UniProt O43156 1-1089); experiment: cryo-EM structure; human R2 saturated with an excess of TTT; symmetry expansion and multi-body refinement; ADP in all six sites
T1 construct: TTI1, human, 1089 residues; In PDB 7OLE TTI1 is modelled as poly-alanine helices only; also called full-length untagged TTI1; source: Sf9, co-expressed with GST-TTI2 constructs (in lysate); co-expressed with TTI2 and TELO2 and purified within TTT
T1 sequence (O43156 whole entry): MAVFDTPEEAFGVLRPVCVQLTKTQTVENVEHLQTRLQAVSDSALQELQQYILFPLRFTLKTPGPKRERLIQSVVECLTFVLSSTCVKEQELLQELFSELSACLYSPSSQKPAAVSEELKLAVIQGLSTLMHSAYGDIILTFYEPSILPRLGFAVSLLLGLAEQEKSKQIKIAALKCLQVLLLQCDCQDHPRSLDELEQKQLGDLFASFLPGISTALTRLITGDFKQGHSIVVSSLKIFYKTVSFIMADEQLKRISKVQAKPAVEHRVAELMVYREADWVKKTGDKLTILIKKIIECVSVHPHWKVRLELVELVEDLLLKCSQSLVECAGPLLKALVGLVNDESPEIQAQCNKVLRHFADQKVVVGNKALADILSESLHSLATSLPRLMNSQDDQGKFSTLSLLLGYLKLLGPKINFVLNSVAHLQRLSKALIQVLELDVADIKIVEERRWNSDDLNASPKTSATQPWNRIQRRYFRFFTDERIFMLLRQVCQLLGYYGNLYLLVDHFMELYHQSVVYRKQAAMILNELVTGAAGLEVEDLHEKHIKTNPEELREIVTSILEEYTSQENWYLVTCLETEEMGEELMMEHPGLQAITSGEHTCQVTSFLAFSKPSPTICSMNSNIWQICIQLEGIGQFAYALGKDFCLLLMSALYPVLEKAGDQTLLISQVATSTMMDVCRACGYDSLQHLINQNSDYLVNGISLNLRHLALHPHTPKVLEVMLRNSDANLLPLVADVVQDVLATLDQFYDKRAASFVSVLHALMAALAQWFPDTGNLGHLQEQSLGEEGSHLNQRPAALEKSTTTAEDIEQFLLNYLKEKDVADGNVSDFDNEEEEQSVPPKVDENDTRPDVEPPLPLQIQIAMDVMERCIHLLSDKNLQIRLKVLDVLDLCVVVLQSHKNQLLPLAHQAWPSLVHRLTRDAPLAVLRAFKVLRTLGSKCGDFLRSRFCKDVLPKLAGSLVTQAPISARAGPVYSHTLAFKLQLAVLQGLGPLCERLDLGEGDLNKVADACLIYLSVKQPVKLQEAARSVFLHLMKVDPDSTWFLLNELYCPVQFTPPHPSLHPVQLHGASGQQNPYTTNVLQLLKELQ

[2] = molecular target: T2, human TTI1-TTI2 subcomplex (human, UniProt O43156 1-1089; Q6NXR4 1-508); experiment: pull-down; GST beads hold the GST-tag on TELO2 (5 μM); 2 μM RUVBL1/2, RUVBL1/2ΔDII or isolated DII domains; 20 mM HEPES pH 7.85, 140 mM NaCl, 0.001% Tween 20; 45 min at 4°C; Coomassie-stained SDS-PAGE
T2 construct: TTI1, human, 1089 residues; TTI2, human, 508 residues; Cloned as TTI1 and GST-TTI2; the methods name both a cleavage of the GST-tag and GST-TTI2-TTI1 as a sample of the pull-downs; also called T2; source: Sf9, co-expressed, purified
T2 sequence (O43156 whole entry, the tested form may be a part, one chain of several): as the sequence (O43156 whole entry) above

[3] = molecular target: B5; experiment: pull-down; strep beads hold the tandem strep-tag on Tah1p in yeast TP or R2TP; 20 mM HEPES pH 7.85, 140 mM NaCl, 0.5 mM TCEP, 0.03% CHAPS; 45 min at 4°C; Coomassie-stained SDS-PAGE
[4] = molecular target: T3, S. cerevisiae Tel2p-Tti1p-Tti2p complex (S. cerevisiae, UniProt P53038 1-688; P36097 1-1038; P47168 1-421); experiment: as above
T3 construct: Tel2p, Saccharomyces cerevisiae; Tti1p, Saccharomyces cerevisiae; Tti2p, Saccharomyces cerevisiae; Purified from insect cells to ensure post-translational modifications on Tel2p; The methods say in general that the GST-tag was cleaved; also called yTTT; yeast TTT; source: Sf9, co-infected with Tti1p-Tti2p and Tel2p viruses, purified; copies: + +
T3 sequence (P53038 whole entry, chain 1 of 3): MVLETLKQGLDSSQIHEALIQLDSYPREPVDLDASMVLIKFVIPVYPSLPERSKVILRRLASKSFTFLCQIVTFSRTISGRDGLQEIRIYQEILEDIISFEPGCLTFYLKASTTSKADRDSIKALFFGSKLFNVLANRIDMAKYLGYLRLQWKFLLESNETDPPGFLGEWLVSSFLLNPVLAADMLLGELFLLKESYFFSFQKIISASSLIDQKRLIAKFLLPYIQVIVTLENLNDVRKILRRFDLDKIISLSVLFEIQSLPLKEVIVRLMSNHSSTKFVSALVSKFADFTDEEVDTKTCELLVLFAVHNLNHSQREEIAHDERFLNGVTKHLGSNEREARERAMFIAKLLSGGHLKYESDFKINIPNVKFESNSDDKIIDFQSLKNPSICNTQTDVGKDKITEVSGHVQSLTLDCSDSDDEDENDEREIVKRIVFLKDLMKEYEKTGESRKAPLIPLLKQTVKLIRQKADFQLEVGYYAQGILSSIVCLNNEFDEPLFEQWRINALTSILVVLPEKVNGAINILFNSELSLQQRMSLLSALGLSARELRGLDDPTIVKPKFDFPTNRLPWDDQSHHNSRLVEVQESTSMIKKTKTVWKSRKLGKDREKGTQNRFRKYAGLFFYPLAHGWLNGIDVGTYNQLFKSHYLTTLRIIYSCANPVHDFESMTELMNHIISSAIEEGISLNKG
T3 sequence (P36097 whole entry, chain 2 of 3): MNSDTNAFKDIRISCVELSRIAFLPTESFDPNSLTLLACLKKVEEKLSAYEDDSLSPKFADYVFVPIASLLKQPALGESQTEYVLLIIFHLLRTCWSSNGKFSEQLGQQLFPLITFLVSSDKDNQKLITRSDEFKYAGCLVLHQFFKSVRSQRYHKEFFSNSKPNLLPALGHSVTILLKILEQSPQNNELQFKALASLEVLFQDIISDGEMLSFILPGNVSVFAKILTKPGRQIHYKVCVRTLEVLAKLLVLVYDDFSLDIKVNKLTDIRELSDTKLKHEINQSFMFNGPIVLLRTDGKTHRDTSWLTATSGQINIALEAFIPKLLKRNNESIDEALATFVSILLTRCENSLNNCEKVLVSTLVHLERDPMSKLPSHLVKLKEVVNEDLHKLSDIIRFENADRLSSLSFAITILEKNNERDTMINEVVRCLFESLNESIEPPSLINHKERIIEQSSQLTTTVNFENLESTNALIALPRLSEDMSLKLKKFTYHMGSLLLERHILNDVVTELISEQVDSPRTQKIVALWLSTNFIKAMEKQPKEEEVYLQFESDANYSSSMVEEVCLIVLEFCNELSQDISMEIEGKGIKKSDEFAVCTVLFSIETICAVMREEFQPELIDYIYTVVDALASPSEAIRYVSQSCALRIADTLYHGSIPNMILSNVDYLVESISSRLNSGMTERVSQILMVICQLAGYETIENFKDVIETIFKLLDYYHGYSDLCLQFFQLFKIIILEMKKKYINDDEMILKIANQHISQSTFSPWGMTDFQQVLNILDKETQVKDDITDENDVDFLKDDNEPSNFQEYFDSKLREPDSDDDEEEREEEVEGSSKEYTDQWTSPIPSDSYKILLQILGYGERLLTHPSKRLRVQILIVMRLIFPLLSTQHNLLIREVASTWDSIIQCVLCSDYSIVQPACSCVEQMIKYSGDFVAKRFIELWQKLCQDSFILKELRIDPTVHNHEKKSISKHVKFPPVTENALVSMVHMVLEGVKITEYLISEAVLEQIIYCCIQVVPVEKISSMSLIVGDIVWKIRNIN
T3 sequence (P47168 whole entry, chain 3 of 3): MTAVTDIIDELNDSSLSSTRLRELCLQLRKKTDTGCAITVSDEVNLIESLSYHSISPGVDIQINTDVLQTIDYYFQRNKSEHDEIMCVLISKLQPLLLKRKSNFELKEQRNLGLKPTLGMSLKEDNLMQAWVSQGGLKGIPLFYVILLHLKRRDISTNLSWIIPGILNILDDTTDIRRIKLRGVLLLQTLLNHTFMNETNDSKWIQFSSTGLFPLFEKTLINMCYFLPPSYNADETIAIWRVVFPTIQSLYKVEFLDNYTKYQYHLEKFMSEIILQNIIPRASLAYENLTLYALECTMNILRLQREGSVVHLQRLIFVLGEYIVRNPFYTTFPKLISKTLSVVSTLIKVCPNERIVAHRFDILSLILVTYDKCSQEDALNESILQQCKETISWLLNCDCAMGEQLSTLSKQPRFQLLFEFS

[5] = molecular target: T4, S. cerevisiae TTT complex in which Tti1p carries a C-terminal FLAG-tag (S. cerevisiae, UniProt P53038 1-688; P36097 1-1038; P47168 1-421); experiment: co-IP; anti-FLAG beads hold yeast TTT by FLAG-tagged Tti1p; purified KmTOR-KmLst8, with or without yeast R2; Coomassie-stained SDS-PAGE
T4 construct: Tel2p, Saccharomyces cerevisiae; Tti1p, Saccharomyces cerevisiae; Tti2p, Saccharomyces cerevisiae; The cloning of the FLAG-tagged Tti1p is not described in the methods; also called FLAG-tagged TTT; FLAG-tagged Tti1p; source: Sf9, purified; not shown: FLAG, C-terminal, kept; copies: + +
T4 sequence (P53038 whole entry, chain 1 of 3): as the sequence (P53038 whole entry, chain 1 of 3) above
T4 sequence (P36097 whole entry, chain 2 of 3): as the sequence (P36097 whole entry, chain 2 of 3) above
T4 sequence (P47168 whole entry, chain 3 of 3): as the sequence (P47168 whole entry, chain 3 of 3) above

Binder: B1
binding result [1]: binds

Binder: B2
binding result [2]: binds

Binder: B3
binding result [3]: binds
binding result [4]: binds

Binder: B4
binding result [1]: binds

Binder: B5
binding result [5]: binds
